# Key:
# [1] = biological target: M2 (amino acids 42–141) (Streptococcus pyogenes (group A Streptococcus), strain M2 (AP2)); assay: crystal structure
# [2] = biological target: M22 (42–120) (Streptococcus pyogenes (group A Streptococcus), strain M22 (Sir22)); assay: crystal structure
Substance,stoichiometry N [1],stoichiometry N [2]
M2 (amino acids 42–141) (domain or fragment),2,–
M22 (42–120) (domain or fragment),–,2

# Reference: article PMC5014329
